According to article PMC13730216 (2026):

Target: CXCL12 (Homo sapiens, UniProt P48061)
Experiment: BLI

Sequence of CXCL12 (P48061 22-89): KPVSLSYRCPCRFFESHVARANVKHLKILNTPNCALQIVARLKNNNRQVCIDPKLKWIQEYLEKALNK

- Kd: 390 nM
B1: miniCXCR4-WRAP truncated extracellular/ligand-binding part fused to designed WRAP (protein)
chain: MEGISIYTSDNYTEEMGSGDYDSMKEPCFREENANFNKIFLPTIYSIIFLTGIVGNGLVILVMGYQKKLRSMTDKYRLHLSVADLLFVITLPFWAVDAVANWYFGNFLCKAVHVIYTVNLYSSVLILAFISLDRYLAIVHATNSQRPRKLLAEKVVYVGVWIPALLLTIPDFIFANVSEADDRYICDRFYPNDLWVVVFQFQHIMVGLILPGIVILSCYCIIISKLSHSKGHQKRKALKTTVILILAFFACWLPYYIGISIDSFILLEIIKQGCEFENTVHKWISITEALAFFHCCLNPILYAFLGAKFKTSAQHALTS
modifications: truncated CXCR4 with designed loops fused to WRAP; biotinylated CXCL12
